Data on two molecules can be found in US20100062978A1 (UNIVERSITY OF TOKYO, published 2010).

Experiment [1] concerns the target T1, wild-type human EGFR (erbB1) (human, UniProt P00533 25-1210).
T1 construct: whole, on cells; precipitated from cell lysates with anti-EGFR antibody; also called HER1; wild-type EGFR
The experiment is described as follows: co-immunoprecipitation with anti-EGFR antibody from HEK293 lysate, immunoblot. As to the method:
Before EGF treatment, Saos-2 cell or HEK293 cell was kept serum deficiency state for 24 hours.
(In general: In western blotting, separated proteins are transferred to a membrane and probed.)

The target of experiment [2] is T2, GST-ERK2 fusion protein (glutathione S-transferase fused with human ERK2, from pGEX-4T-1) (human, UniProt P28482 1-360).
T2 construct: Expressed in E. coli BL21 and immobilised on Glutathione Sepharose beads for the pull-down; not shown: glutathione S-transferase (GST) encoded by the vector pGEX-4T-1
The experiment is described as follows: GST-ERK2 pull-down from HEK293 lysate, immunoblot.

T2 sequence (P28482 whole entry, the tested form may be a part): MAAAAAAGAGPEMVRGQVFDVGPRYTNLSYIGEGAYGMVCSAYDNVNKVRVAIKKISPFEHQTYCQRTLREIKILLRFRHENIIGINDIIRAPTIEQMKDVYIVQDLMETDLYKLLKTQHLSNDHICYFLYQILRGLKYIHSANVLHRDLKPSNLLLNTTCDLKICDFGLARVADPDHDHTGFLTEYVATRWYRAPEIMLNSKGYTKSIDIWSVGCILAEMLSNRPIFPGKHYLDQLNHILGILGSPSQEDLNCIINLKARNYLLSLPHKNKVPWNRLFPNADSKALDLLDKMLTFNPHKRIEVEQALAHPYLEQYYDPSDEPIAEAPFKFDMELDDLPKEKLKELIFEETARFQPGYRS

B1: 186-328 variant of human SNT-2 (PTB-domain-deleted), C-terminal FLAG-tag (other)
chain: DEQSHTYVNTPASEDDHRRGRHCLQPLPEGQAPFLPQARGPDQRDPQVFLQPGQVKFVLGPTPARRHMVKCQGLCPSLHDPPHHNNNNEAPSECPAQPKCTYENVTGGLWRGAGWRLSPEEPGWNGLAHRRAALLHYENLPPL
notes: not shown: C-terminal FLAG-tag
For B1, the binding result in experiment [1] is reported as “no binding”.

B2: 1-236 variant of human SNT-2, C-terminal FLAG-tag (other)
chain: MGSCCSCLNRDSVPDNHPTKFKVTNVDDEGVELGSGVMELTQSELVLHLHRREAVRWPYLCLRRYGYDSNLFSFESGRRCQTGQGIFAFKCSRAEEIFNLLQDLMQCNSINVMEEPVIITRNSHPAELDLPRAPQPPNALGYTVSSFSNGCPGEGPRFSAPRRLSTSSLRHPSLGEESTHALIAPDEQSHTYVNTPASEDDHRRGRHCLQPLPEGQAPFLPQARGPDQRDPQVFLQ
notes: C-terminal-cut-off variant expressed in HEK293 cells; not shown: C-terminal FLAG-tag
B2: the binding result in experiment [2] is “no binding”.
